B1: TPR t1 (parent)
chain: GACCAAUCUGCCCUCAGAGCUCGAGAACAUCUUCGGAUGCAGAGGAGGCAGGCUUCGGUGGCGCGAUAGCGCCAACGUCCUCAACCUCCAAUGCAUCCCACCACAUGAUGAUGCCUGAAGAGCCUUGGUUUUUUG

In the data set the parent is B1. The experiment in a line: polymerase ribozyme fitness, log enrichment relative to wild type (log ratio); higher = more active; in vitro selection for triplet polymerase activity. In outline:
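To select mutant libraries of each subunit of a heterodimeric triplet polymerase ribozyme, built by PCR and transcribed, each was annealed with a biotinylated primer, partner subunit and triplets, then incubated frozen at −7 °C. Extended constructs were gel-excised, captured on streptavidin beads and amplified by RT-PCR, in one round carried out in triplicate. Illumina sequencing of input and output libraries kept genotypes with ≥10 input reads and ≥1 read per output. Fitness is the base-2 logarithm of genotype enrichment relative to wild-type enrichment, from inverse-variance-weighted replicate averages.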
On to A2U G69U C102U G113A U129A, for which the “polymerase ribozyme fitness (log ratio)” value was -0.898.

On to A2G G44A, for which the “polymerase ribozyme fitness (log ratio)” value is -0.766.

On to A2U G36C C72G, for which the “polymerase ribozyme fitness (log ratio)” value was -4.64.

For A2U C73A G120C, the “polymerase ribozyme fitness (log ratio)” value was -2.28.

Consider A2U G36C A74C, for which the “polymerase ribozyme fitness (log ratio)” value is -3.04.

With A2U C72U C101G C124A, the “polymerase ribozyme fitness (log ratio)” value was -2.06.

For A2G C62A C85A, the “polymerase ribozyme fitness (log ratio)” value was -3.14.

With A2U C56A G63A C104A U112A, the “polymerase ribozyme fitness (log ratio)” value was -5.33.

Turning to A2C C114A, the “polymerase ribozyme fitness (log ratio)” value is -3.32.

Consider A2C C114U, for which the “polymerase ribozyme fitness (log ratio)” value is -3.24.

Regarding A2C C4A U7C G44A C56G C94U, the “polymerase ribozyme fitness (log ratio)” value is -1.93.

In the case of A2C U112A G127A, the “polymerase ribozyme fitness (log ratio)” value was -0.337.

With A2G G93A G120U, the “polymerase ribozyme fitness (log ratio)” value was -0.278.

Turning to A2C C11U C15U U55G A90G A121G, the “polymerase ribozyme fitness (log ratio)” value is -0.451.

For the variant A2C G120U C124A U131G, the “polymerase ribozyme fitness (log ratio)” value is -1.15.

Turning to A2G G47A C72G, the “polymerase ribozyme fitness (log ratio)” value is -0.743.

In the case of A2G C73A A90G A105G, the “polymerase ribozyme fitness (log ratio)” value is -2.1.

Take A2G A27G G52U G63C U87C: the “polymerase ribozyme fitness (log ratio)” value is -2.6.

Turning to A2U G71A, the “polymerase ribozyme fitness (log ratio)” value was -2.72.

A2G C73U G113A C114G A119U U126G: the “polymerase ribozyme fitness (log ratio)” value was -5.02.

Turning to A2G C40G G45U G52A C124G, the “polymerase ribozyme fitness (log ratio)” value is -2.61.

As to A2G G71A, the “polymerase ribozyme fitness (log ratio)” value was -0.784.

As for A2G A6C C56U, the “polymerase ribozyme fitness (log ratio)” value worked out at 0.182.

On to A2C U7G A43C G63C C115U, for which the “polymerase ribozyme fitness (log ratio)” value was -4.87.

In the case of A2C C13A C22A C49G G63C C123U, the “polymerase ribozyme fitness (log ratio)” value is -5.96.

As for A2G C49U C79A C86G, the “polymerase ribozyme fitness (log ratio)” value is -2.96.

With A2C C12A C104U, the “polymerase ribozyme fitness (log ratio)” value was -1.93.

On to A2G U87G A95U G110A, for which the “polymerase ribozyme fitness (log ratio)” value is -0.979.

A2C G120A C123A: the “polymerase ribozyme fitness (log ratio)” value is -0.977.

On to A2U G57C, for which the “polymerase ribozyme fitness (log ratio)” value was -2.3.

For the variant A2U C11U G63U C101G G113U C115U, the “polymerase ribozyme fitness (log ratio)” value is -6.67.

On to A2U G36C C53U, for which the “polymerase ribozyme fitness (log ratio)” value was -3.54.

In the case of A2G C8G A43G G69C C98A C123A, the “polymerase ribozyme fitness (log ratio)” value was -7.53.

Take A2C U21A: the “polymerase ribozyme fitness (log ratio)” value was -2.19.

For the variant A2G C13G, the “polymerase ribozyme fitness (log ratio)” value was 0.491.

With A2U C56A A83G, the “polymerase ribozyme fitness (log ratio)” value was -4.24.

A2G C102A C114U: the “polymerase ribozyme fitness (log ratio)” value is -4.44.

Turning to A2G G36A C49G G69U A90G C97U G120C, the “polymerase ribozyme fitness (log ratio)” value was 0.751.

Take A2G C101G: the “polymerase ribozyme fitness (log ratio)” value was -1.53.

With A2U C12A G19A U30G C56A U112A C114G, the “polymerase ribozyme fitness (log ratio)” value was -7.24.

Consider A2U A37G C76G, for which the “polymerase ribozyme fitness (log ratio)” value was -3.35.

Consider A2U G36C C82U G113U G135U, for which the “polymerase ribozyme fitness (log ratio)” value is -5.19.

As to A2C C86U A90C, the “polymerase ribozyme fitness (log ratio)” value was -4.21.

With A2U G110A, the “polymerase ribozyme fitness (log ratio)” value was -3.63.

As for A2U G110C, the “polymerase ribozyme fitness (log ratio)” value is -6.03.

With A2U A74U C82U, the “polymerase ribozyme fitness (log ratio)” value was -3.62.

As for A2G C85U A95G, the “polymerase ribozyme fitness (log ratio)” value is -2.08.

As for A2U A50C C56U G57U C62U A91U C124G G127C G128C, the “polymerase ribozyme fitness (log ratio)” value was -4.5.

On to A2C A41C, for which the “polymerase ribozyme fitness (log ratio)” value was -2.75.

As for A2U A50C C56U G57U A91U C124G G127C G128C, the “polymerase ribozyme fitness (log ratio)” value is -4.54.

Take A2C C4G G51C C101A: the “polymerase ribozyme fitness (log ratio)” value is -6.08.

Turning to A2U G19A, the “polymerase ribozyme fitness (log ratio)” value was -4.15.

On to A2G A6G C8A A46C U87C, for which the “polymerase ribozyme fitness (log ratio)” value was -0.00636.

As to A2C A27G A29U G77A G113A C124G, the “polymerase ribozyme fitness (log ratio)” value was -3.05.

For A2U C12U C64U, the “polymerase ribozyme fitness (log ratio)” value is -2.54.

Regarding A2G C62A, the “polymerase ribozyme fitness (log ratio)” value was -0.128.

Regarding A2U G52U, the “polymerase ribozyme fitness (log ratio)” value was -3.41.

As to A2G G17C C56U, the “polymerase ribozyme fitness (log ratio)” value was -4.71.

For A2C G39U A41C C56G C101A C123G, the “polymerase ribozyme fitness (log ratio)” value is -4.81.

As to A2U C12G G63A, the “polymerase ribozyme fitness (log ratio)” value is -3.14.

A2U A5G U9G A41C: the “polymerase ribozyme fitness (log ratio)” value is -2.01.

Take A2U A16U C72G C86U: the “polymerase ribozyme fitness (log ratio)” value is -4.45.

Turning to A2G C40A C89U, the “polymerase ribozyme fitness (log ratio)” value is -1.58.

Turning to A2C C53G C70G, the “polymerase ribozyme fitness (log ratio)” value is -5.19.

For the variant A2G G36A C49G A84C C123A U126G, the “polymerase ribozyme fitness (log ratio)” value was -2.7.

Consider A2C C13U C86U G110U G120C, for which the “polymerase ribozyme fitness (log ratio)” value is -4.02.

Regarding A2C G127U, the “polymerase ribozyme fitness (log ratio)” value is -1.27.

On to A2G C114U G120U, for which the “polymerase ribozyme fitness (log ratio)” value is -3.07.

In the case of A2U C8A A100U, the “polymerase ribozyme fitness (log ratio)” value is -1.86.

In the case of A2G C49U C62A C94G, the “polymerase ribozyme fitness (log ratio)” value is -4.35.

Turning to A2U C11U C79A C123A, the “polymerase ribozyme fitness (log ratio)” value is -0.946.

In the case of A2C U112A, the “polymerase ribozyme fitness (log ratio)” value was -0.421.

Turning to A2C C56A G63A, the “polymerase ribozyme fitness (log ratio)” value is -4.79.

As to A2U U54C U112G G113A U133A, the “polymerase ribozyme fitness (log ratio)” value was -2.96.

On to A2G C4A U7C G47C C56A A68G C99A G110U C115G G117C U129A, for which the “polymerase ribozyme fitness (log ratio)” value is -7.47.

Regarding A2G C70U, the “polymerase ribozyme fitness (log ratio)” value was -0.43.

As for A2G C70A, the “polymerase ribozyme fitness (log ratio)” value was -1.82.

In the case of A2U G10U C115U, the “polymerase ribozyme fitness (log ratio)” value was -3.43.

Consider A2C G61C, for which the “polymerase ribozyme fitness (log ratio)” value is -3.02.

For the variant A2C U7C C15U C72U A105U, the “polymerase ribozyme fitness (log ratio)” value was -3.49.

Turning to A2G G63C A74C U87C A100U, the “polymerase ribozyme fitness (log ratio)” value is -4.51.

For A2U C13U A50G U112C, the “polymerase ribozyme fitness (log ratio)” value stood at 0.516.

A2G C53A G60A A105C: the “polymerase ribozyme fitness (log ratio)” value was -4.11.

For the variant A2U G135U, the “polymerase ribozyme fitness (log ratio)” value is -1.94.

The values above are taken from the RNAGym collection of RNA variant scans (doi:10.1073/pnas.2313332121).
